The star is where a group is joined. Biotin = O=C1N[C@H]2[C@H](CS[C@H]2CCCCC(=O)*)N1
T1: elastin (bovine) (bovine, UniProt P04985 27-747, limits assumed)
T1 construct: Coated and dried on plates at 10 ug/cm2
T1 sequence (looked up): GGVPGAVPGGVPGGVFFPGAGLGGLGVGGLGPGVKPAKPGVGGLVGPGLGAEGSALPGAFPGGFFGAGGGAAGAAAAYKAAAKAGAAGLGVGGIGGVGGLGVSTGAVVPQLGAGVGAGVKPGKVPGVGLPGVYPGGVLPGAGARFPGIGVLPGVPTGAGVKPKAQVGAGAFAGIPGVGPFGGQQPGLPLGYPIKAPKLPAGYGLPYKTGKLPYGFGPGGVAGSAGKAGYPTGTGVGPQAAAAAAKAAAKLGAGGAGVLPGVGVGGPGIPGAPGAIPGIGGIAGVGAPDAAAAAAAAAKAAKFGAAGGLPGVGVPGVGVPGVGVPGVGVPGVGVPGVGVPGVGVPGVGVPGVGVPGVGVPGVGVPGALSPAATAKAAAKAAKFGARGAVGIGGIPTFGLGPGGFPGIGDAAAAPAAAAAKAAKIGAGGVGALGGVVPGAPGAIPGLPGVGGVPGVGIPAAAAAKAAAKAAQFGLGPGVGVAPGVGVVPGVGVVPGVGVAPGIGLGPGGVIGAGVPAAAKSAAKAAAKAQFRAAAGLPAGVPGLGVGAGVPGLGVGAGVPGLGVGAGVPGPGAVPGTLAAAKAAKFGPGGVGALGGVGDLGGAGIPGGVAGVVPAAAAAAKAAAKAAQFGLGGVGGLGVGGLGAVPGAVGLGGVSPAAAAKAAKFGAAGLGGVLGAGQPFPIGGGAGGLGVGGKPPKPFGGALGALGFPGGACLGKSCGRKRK

T2: collagen type III (human) (human, UniProt P02461 154-1221)
T2 construct: III (human)'; Coated and dried on plates at 10 ug/cm2; also called collagen III
T2 sequence (looked up): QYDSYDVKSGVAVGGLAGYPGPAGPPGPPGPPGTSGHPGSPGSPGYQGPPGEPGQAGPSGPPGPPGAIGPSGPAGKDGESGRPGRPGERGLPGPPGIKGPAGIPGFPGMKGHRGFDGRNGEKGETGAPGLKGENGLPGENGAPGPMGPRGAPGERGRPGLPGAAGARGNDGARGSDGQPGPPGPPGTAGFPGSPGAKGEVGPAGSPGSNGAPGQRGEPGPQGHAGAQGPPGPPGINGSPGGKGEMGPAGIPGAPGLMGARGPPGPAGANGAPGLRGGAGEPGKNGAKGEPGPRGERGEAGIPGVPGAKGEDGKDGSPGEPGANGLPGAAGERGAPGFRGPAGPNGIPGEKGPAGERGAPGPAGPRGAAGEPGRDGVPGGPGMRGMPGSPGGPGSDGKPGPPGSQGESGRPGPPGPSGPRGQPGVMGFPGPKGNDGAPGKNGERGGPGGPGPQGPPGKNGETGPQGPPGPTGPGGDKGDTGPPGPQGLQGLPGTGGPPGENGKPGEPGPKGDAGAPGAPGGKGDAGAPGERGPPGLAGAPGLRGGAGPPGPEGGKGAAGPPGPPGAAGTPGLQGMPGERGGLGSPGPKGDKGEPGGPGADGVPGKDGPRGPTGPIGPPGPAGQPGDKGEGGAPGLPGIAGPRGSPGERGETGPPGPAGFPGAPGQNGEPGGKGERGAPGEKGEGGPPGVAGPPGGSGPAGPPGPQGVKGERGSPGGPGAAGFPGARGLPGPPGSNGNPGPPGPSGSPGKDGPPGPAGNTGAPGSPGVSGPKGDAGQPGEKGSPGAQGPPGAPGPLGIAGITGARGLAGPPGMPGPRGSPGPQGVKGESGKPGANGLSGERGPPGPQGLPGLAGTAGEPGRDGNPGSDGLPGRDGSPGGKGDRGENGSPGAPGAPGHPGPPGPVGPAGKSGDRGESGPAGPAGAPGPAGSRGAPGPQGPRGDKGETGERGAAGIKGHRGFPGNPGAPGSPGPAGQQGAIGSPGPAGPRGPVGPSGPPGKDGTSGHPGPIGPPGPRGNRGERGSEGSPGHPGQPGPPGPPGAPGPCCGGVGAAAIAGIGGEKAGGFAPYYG


Tests used:
Assay in all cases: plate assay: biotinylated peptide on dried ECM coating (10 ug/cm2), streptavidin-488 fluorescence
[1] = target: T3, collagen type IV (mouse) (mouse, UniProt P02463 28-1669; P08122 26-1707)
T3 construct: IV (mouse)'; Coated and dried on plates at 10 ug/cm2; also called collagen IV
Description: (§1) Peptides were incubated 24 hours at 37° C. on collagens I-IV, elastin, hyaluronic acid, and Geltrex. Coatings (10 pig/cm²) were previously dried overnight in milli-Q water. Overall significance was assessed using analysis of variance, with Tukey's multiple comparison post-hoc analysis between ECM groups where n=4.
(§2) N-termini biotinylated peptides were added to coated plates at 0, 1, 2.5, 5 and 10 mg/ml overnight at 37° C. in phosphate buffered saline (PBS), pH 7.4, after which the plates were washed three times with PBS. Fluorescent streptavidin-488 (4 μg/mL) was added to each well and incubated at 37° C. temperature for 24 hours, then thoroughly washed with PBS. The plates were read with a fluorescence microplate reader for fluorescence intensity (Ex 490 nm, Em 525 nm). All data were normalized to the background fluorescence intensity of Streptavidin-488.

[2] = target: T1, elastin (bovine)
Description: as §1, §2

[3] = target: T4, collagen type I (rat) (rat, UniProt P02454 152-1207; P02466 86-1125)
T4 construct: Coated and dried on 96-well plates at 10 ug/cm2; also called collagen I
Description: as §1, §2

[4] = target: T2, collagen type III (human)
Description: as §1, §2

T4 sequence (P02454 152-1207, chain 1 of 2): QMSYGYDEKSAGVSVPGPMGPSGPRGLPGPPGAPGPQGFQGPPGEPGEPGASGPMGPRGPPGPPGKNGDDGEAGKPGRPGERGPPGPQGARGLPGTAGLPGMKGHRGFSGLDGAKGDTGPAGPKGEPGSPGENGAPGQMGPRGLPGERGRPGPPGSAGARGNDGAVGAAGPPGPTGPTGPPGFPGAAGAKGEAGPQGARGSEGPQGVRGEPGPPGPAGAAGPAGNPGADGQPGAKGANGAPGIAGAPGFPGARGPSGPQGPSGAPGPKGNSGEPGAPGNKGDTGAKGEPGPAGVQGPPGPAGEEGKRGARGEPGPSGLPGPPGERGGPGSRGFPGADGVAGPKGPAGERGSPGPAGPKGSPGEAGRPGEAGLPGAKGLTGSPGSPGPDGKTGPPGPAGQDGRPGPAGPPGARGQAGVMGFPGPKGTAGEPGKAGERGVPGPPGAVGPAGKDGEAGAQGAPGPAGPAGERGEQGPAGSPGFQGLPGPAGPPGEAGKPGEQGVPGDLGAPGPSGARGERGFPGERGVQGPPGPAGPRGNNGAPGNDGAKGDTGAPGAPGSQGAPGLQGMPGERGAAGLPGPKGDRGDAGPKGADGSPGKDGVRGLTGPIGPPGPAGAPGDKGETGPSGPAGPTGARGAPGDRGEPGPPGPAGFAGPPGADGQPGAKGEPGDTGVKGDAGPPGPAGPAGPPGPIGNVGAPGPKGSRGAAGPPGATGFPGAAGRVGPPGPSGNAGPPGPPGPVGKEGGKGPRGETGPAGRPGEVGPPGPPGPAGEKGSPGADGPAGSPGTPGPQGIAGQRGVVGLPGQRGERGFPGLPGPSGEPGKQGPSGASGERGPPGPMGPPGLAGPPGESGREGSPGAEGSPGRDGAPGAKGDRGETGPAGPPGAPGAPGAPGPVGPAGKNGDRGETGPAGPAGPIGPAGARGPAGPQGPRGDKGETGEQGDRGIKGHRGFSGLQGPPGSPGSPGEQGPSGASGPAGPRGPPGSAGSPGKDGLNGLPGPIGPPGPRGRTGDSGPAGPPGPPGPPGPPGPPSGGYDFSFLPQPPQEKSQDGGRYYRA
T4 sequence (P02466 86-1125, chain 2 of 2): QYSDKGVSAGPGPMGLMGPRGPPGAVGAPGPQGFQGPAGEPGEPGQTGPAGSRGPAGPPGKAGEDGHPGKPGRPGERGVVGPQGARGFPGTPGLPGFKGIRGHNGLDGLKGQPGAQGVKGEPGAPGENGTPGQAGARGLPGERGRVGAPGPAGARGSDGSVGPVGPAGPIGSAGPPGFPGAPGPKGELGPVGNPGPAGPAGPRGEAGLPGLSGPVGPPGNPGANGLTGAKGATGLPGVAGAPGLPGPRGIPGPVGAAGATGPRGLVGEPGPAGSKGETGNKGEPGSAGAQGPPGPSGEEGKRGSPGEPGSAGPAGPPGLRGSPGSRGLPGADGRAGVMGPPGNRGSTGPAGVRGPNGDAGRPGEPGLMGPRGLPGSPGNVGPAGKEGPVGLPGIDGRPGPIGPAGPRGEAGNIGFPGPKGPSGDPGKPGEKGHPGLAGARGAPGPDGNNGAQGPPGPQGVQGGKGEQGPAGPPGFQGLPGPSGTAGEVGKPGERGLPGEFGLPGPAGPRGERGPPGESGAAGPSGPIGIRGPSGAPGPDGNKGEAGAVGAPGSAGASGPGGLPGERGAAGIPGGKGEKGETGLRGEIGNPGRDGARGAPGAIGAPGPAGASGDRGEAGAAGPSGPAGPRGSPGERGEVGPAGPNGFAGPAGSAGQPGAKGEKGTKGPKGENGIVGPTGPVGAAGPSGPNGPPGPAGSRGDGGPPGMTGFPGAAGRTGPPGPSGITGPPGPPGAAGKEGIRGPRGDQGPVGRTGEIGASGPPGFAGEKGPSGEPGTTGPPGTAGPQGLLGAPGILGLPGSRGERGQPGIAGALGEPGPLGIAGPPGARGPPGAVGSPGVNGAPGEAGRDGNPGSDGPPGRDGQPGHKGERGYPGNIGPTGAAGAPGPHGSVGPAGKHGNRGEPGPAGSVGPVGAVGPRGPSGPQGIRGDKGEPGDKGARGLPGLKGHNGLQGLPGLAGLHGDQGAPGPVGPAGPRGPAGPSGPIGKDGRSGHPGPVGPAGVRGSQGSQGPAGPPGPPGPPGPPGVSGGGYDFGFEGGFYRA

Row | binding result [1] | binding result [2] | binding result [3] | binding result [4] | Binder
1 | no binding (tested: 5.0 mg/ml) | no binding (tested: 5.0 mg/ml) | no binding (tested: 5.0 mg/ml) | no binding (tested: 5.0 mg/ml) | Biotin-KTKATVLIKNKQKSKNALKQKIVLLSK-OH (SMILES CC[C@H](C)[C@H](NC(=O)[C@H](CC(C)C)NC(=O)[C@@H](NC(=O)[C@@H](NC(=O)[C@H](C)NC(=O)[C@H](CCCCN)NC(=O)[C@@H](NC(=O)[C@H](CCCCN)NC(=O)CCCC[C@@H]1SC[C@@H]2NC(=O)N[C@@H]21)[C@@H](C)O)[C@@H](C)O)C(C)C)C(=O)N[C@@H](CCCCN)C(=O)N[C@@H](CC(N)=O)C(=O)N[C@@H](CCCCN)C(=O)N[C@@H](CCC(N)=O)C(=O)N[C@@H](CCCCN)C(=O)N[C@@H](CO)C(=O)N[C@@H](CCCCN)C(=O)N[C@@H](CC(N)=O)C(=O)N[C@@H](C)C(=O)N[C@@H](CC(C)C)C(=O)N[C@@H](CCCCN)C(=O)N[C@@H](CCC(N)=O)C(=O)N[C@@H](CCCCN)C(=O)N[C@H](C(=O)N[C@H](C(=O)N[C@@H](CC(C)C)C(=O)N[C@@H](CC(C)C)C(=O)N[C@@H](CO)C(=O)N[C@@H](CCCCN)C(=O)O)C(C)C)[C@@H](C)CC, De novo designed 27-residue peptide, custom synthesized; the biotinylated peptides are used in every experiment; Self-assembles at higher concentrations) [Peptide 17x-3]
2 | no binding (tested: 5.0 mg/ml) | no binding (tested: 5.0 mg/ml) | no binding (tested: 5.0 mg/ml) | no binding (tested: 5.0 mg/ml) | Biotin-TQLRNKYTFLARARNALAVRTKQNIKS-OH (SMILES CC[C@H](C)[C@H](NC(=O)[C@H](CC(N)=O)NC(=O)[C@H](CCC(N)=O)NC(=O)[C@H](CCCCN)NC(=O)[C@@H](NC(=O)[C@H](CCCNC(=N)N)NC(=O)[C@@H](NC(=O)[C@H](C)NC(=O)[C@H](CC(C)C)NC(=O)[C@H](C)NC(=O)[C@H](CC(N)=O)NC(=O)[C@H](CCCNC(=N)N)NC(=O)[C@H](C)NC(=O)[C@H](CCCNC(=N)N)NC(=O)[C@H](C)NC(=O)[C@H](CC(C)C)NC(=O)[C@H](Cc1ccccc1)NC(=O)[C@@H](NC(=O)[C@H](Cc1ccc(O)cc1)NC(=O)[C@H](CCCCN)NC(=O)[C@H](CC(N)=O)NC(=O)[C@H](CCCNC(=N)N)NC(=O)[C@H](CC(C)C)NC(=O)[C@H](CCC(N)=O)NC(=O)[C@@H](NC(=O)CCCC[C@@H]1SC[C@@H]2NC(=O)N[C@@H]21)[C@@H](C)O)[C@@H](C)O)C(C)C)[C@@H](C)O)C(=O)N[C@@H](CCCCN)C(=O)N[C@@H](CO)C(=O)O, Designed from the 42 residue peptide BH-P; biotinylated synthetic peptide) [Peptide BHP3]

From US20250026792A1, “SELF-ASSEMBLING PEPTIDES WITH HYALURONIC ACID BINDING DOMAINS AND METHODS OF USE THEREOF” (Northwestern University, priority 2022, published 2025)
